± gives the standard deviation.
Test: protein stability index of a GFP-peptide fusion (GPS, HEK-293T) (PSI 1-6); higher = more stable
[1] = treatment: DMSO, c terminus: a fixed tail appended
[2] = treatment: MLN4924 1 uM, 8 h, c terminus: a fixed tail appended
[3] = treatment: DMSO, c terminus: native
[4] = treatment: MLN4924 1 uM, 8 h, c terminus: native
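Further: 24-mer peptide tiles fused after GFP, lentivirally expressed, FACS-sorted into six equal bins by GFP/DsRed ratio, decoded by Illumina sequencing, PSI is the read-weighted mean bin number.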

Row | Sequence | protein stability index [1] | protein stability index [2] | protein stability index [3] | protein stability index [4]
1 | PSPPTSPPWGLGPGAGDPAPGIGP [MYCL] | 4.7 ± 0.18 | 4.72 ± 0.069 | – | –
2 | EQEHAAIQDKLFQVAKREREAATK [CHCHD6] | 5.38 ± 0.36 | 5.48 ± 0.16 | – | –
3 | LDAVEAQIGCKLPDDYRCSYRIHN [FBXO3] | 2.98 ± 0.39 | 3.15 ± 0.33 | – | –
4 | DVYSFAIVIWGVLTQKKPFADEKN [RIPK4] | 2.61 ± 0.77 | 1.86 ± 0.072 | – | –
5 | TLLGNPKKRMRYFDPLRNEYFFDR [KCNA1] | 2.27 ± 0.29 | 2.3 ± 0.057 | – | –
6 | AESFPGSQVMGSGRGSLSSGGQTS [PLEKHN1] | 4.81 ± 0.2 | 4.88 ± 0.25 | – | –
7 | TNHGYRVQVENPERFSSAPCLLGS [TRIM35] | 3.4 ± 0.17 | 3.29 ± 0.31 | – | –
8 | AVSVMKKCRKLEDPQSSSQVTTS [SLC19A2] | – | – | 4.36 ± 0.23 | 4.37 ± 0.19
9 | LPFERLAFVLSSNSLKHCTELELF [KLHL13] | 2.73 ± 0.6 | 2.76 ± 0.62 | – | –
10 | RLLSHDQVAMPYQWEYPYLLSILP [JAGN1] | 2.15 ± 0.19 | 1.99 ± 0.16 | – | –
11 | NISCFFRLVDRDSVWGYDLGLRSL [MYORG] | 3.01 ± 0.41 | 2.95 ± 0.7 | – | –
12 | PQESAILQLFHQDGTFSPVTLALF [CLCN6] | 2.45 ± 0.46 | 2.42 ± 0.32 | – | –
13 | EGYEFCHNRKVLTIFSASNYYEVG [PPEF2] | 2.31 ± 0.44 | 2.05 ± 0.44 | – | –
14 | LPWFRTLSWYFLLCVNYFFYGETV [CDS1] | 3.08 ± 0.14 | 3.38 ± 0.75 | – | –
15 | VASGSTPAPALCCAPYDSRLLGSA [IRX6] | 2.64 ± 0.21 | 2.99 ± 0.13 | – | –
16 | LSPKKTWEGFIGGFFSTVVFGFIA [CDS1] | 2.28 ± 0.47 | 2.15 ± 0.63 | – | –
17 | DFYREDEDEEEEEGGEGEKEGEGE [TRIM55] | 5.57 ± 0.57 | 5.79 ± 0.084 | – | –
18 | AGRIDREELCAQSARCVVSFNILV [PCDHGA10] | 2.45 ± 1.1 | 2.37 ± 0.61 | – | –
19 | SPSFQLKAAALPPFPLGASAQNGL [PLAGL1] | 3.41 ± 0.32 | 3.52 ± 0.4 | – | –
20 | WLLNNLMTHQNVELFKELSINVMK [GMCL1] | 2.28 ± 0.54 | 2.08 ± 0.3 | – | –
21 | SQAPDGRRKSEAGSGAASSSGEDK [CDC25B] | 5.65 ± 0.18 | 5.58 ± 0.35 | – | –
22 | KYSVYIYVYFHTKLTSQNSKRVS [R3HDM1] | – | – | 2.55 ± 0.71 | 2.24 ± 0.15
23 | STETLVHVSDEDNNADLCLTDDKQ [DLC1] | 5.59 ± 0.36 | 5.59 ± 0.38 | – | –

Row | Sequence | protein stability index [1] | protein stability index [2] | protein stability index [3] | protein stability index [4]
24 | YTSSLACHRALQDAFSGLFWQPS [MNAT1] | – | – | 2.29 ± 0.51 | 2.01 ± 0.33
25 | EACKAFFKRTIQGSIEYSCPASNE [ESRRA] | 2.98 ± 0.19 | 3 ± 0.17 | – | –
26 | MEEGERSPLLSQETAGQKPLSVHR [TSPAN10] | 5.08 ± 0.11 | 5.02 ± 0.18 | – | –
27 | VPPRMGSRAGGPTTPLSPTRLSRL [LMNB1] | 3.92 ± 0.57 | 3.85 ± 0.56 | – | –
28 | FDVFSPKQDLVPGSPDDSHPKDGP [DLC1] | 5.43 ± 0.36 | 5.43 ± 0.33 | – | –
29 | QIENLNIQVEDIRIRAILSTYRKR [LOXL2] | 2.67 ± 0.28 | 2.85 ± 0.37 | – | –
30 | DFSVSLKASGKNKHFKVQLVDNVY [NCK2] | 2.27 ± 0.25 | 2.25 ± 0.19 | – | –
31 | ADLLLLTDLKTLCCEFLEGCIAAE [GAN] | 2.15 ± 0.42 | 2.16 ± 0.58 | – | –
32 | DLLRNTHFRGVSLNLTRKLAQQLC [DYRK1B] | 2.35 ± 0.48 | 2.22 ± 0.3 | – | –
33 | KLRQMRVEKFIYENHPDVFSDSSM [MYOZ1] | 2.43 ± 0.17 | 2.64 ± 0.41 | – | –
34 | IVISPFRLEELTNRLASLQQENKV [CCDC6] | 2.12 ± 0.15 | 2.4 ± 0.25 | – | –
35 | NPGTDAVAQTSLEEFNVLEMEVMR [FATE1] | 4.71 ± 0.18 | 4.68 ± 0.13 | – | –
36 | ANYVIVRAYQYTTLTSVQLLDCFG [SLC35F2] | 3.21 ± 0.26 | 3.03 ± 0.49 | – | –
37 | TTVPEVEPPQDSHSRKTVLIKTIE [PRPH] | 4.58 ± 0.3 | 4.6 ± 0.38 | – | –
38 | SRNFGVRNQGNFSVVGTVLAATQA [ZC2HC1C] | 2.96 ± 0.19 | 3.16 ± 0.12 | – | –
39 | DKDKSPESHKAKNESWIKSHFSRL [C10orf62] | 3.46 ± 0.25 | 3.48 ± 0.31 | – | –
40 | THSPQKSHQCAHCEKTFNRKDHLK [PLAGL1] | 3.97 ± 0.16 | 4.05 ± 0.28 | – | –
41 | STFRTPAVLFTGIVALYIASGLTG [ATL3] | 3.09 ± 0.38 | 3.19 ± 0.24 | – | –
42 | GGMSHLHTFRATFQEPLYPALRLW [TRIM14] | 2.21 ± 0.22 | 2.13 ± 0.091 | – | –
43 | RSLGPRAPSLRRHVLIHNTLQQLQ [SERTAD3] | 2.64 ± 0.25 | 3.05 ± 0.19 | – | –
44 | ALILHQRIHSGEKPYGCVECGKAF [ZNF24] | 2.17 ± 0.052 | 2.5 ± 0.4 | – | –
45 | DLPEVESLPRDRVLGFLIENFKGL [VPS39] | 3.27 ± 0.59 | 3.19 ± 0.34 | – | –
46 | EFMKTLEKTGPQLTSRIKGDWIGL [DENND6A] | 2.06 ± 0.23 | 2.23 ± 0.25 | – | –

Row | Sequence | protein stability index [1] | protein stability index [2] | protein stability index [3] | protein stability index [4]
47 | MRSNYPPPLSSAALRGAGPTRRN [C6orf223] | – | – | 3.1 ± 1.3 | 3.18 ± 0.51
48 | IKYFRVDFYEAMDDYTSAIEVQPN [TTC32] | 2.48 ± 0.51 | 2.1 ± 0.46 | – | –
49 | LIVHIALPSWADICTNLCEALQNF [M1AP] | 3.02 ± 0.56 | 3.09 ± 0.24 | – | –
50 | ILLNGVSGWIFFYVPSSESFIIYL [P2RY14] | 2.74 ± 0.27 | 2.84 ± 0.52 | – | –
51 | GSMEQVSSHFLEQTLDKKLMSDLR [INTS4] | 3.72 ± 0.2 | 3.73 ± 0.6 | – | –
52 | ALNQEFLATRSNEKQELQELNDRF [PRPH] | 4.24 ± 0.19 | 4.38 ± 0.22 | – | –
53 | EYMETGSLEKLLASEPLPWDLRFR [RIPK4] | 2.76 ± 0.3 | 3.27 ± 0.6 | – | –
54 | KVCLLGDTGVGKSSIVWRFVEDSF [RAB22A] | 2.28 ± 0.22 | 2.48 ± 0.68 | – | –
55 | FDKEWVAKQTKRMLDMKVNPIQGL [COX4I1] | 2.46 ± 0.44 | 2.78 ± 0.41 | – | –
56 | KVKTMEVTSVSIELEKNFSNFPRQ [TRIM39] | 3.15 ± 0.23 | 3.42 ± 0.36 | – | –
57 | MPAATVDHSQRICEVWACNLDEEM [CNOT7] | 4.65 ± 0.41 | 4.77 ± 0.28 | – | –
58 | EFGALMSNYSLPPPLPTYHVLLEG [TRIM29] | 2.7 ± 0.98 | 2.15 ± 0.33 | – | –
59 | ENVDEASAAPGHPQDGSYPRQADH [KCNA1] | 5.55 ± 0.25 | 5.47 ± 0.26 | – | –
60 | CQALPYGPGYWMCCHRSQKGFPGC [FBXO34] | 2.35 ± 0.44 | 2.23 ± 0.32 | – | –
61 | LTGFSWRGGSDPETTGIQIWSEVF [ATL3] | 2.16 ± 0.33 | 1.59 ± 0.4 | – | –
62 | KIKKSPLTICYPEYAGSNTYEEAA [GNAI1] | 3.34 ± 0.26 | 3.91 ± 0.28 | – | –
63 | NFFTTLRVVHHKFHSQRHGSKKD [TMEM120A] | – | – | 3.32 ± 0.33 | 3.3 ± 0.45
64 | GAVIEVFGHRFIILDTDEYVLKYM [EFHC1] | 2.5 ± 0.56 | 2.27 ± 0.67 | – | –
65 | SSGRSCRNERSIQEKLQVLMAEGL [SMG5] | 2.64 ± 0.39 | 2.88 ± 0.12 | – | –
66 | DGQYMGVAFRGLKGKKLYPVVSAV [SPSB1] | 2.36 ± 0.55 | 2.12 ± 0.48 | – | –
67 | FSIVSVAAHLALLLLCGTISLRVY [RTN2] | 3.35 ± 0.76 | 3.16 ± 0.8 | – | –
68 | SMQAVLDYLYTKQLSPNLDLDPLE [RHOBTB1] | 2.47 ± 0.37 | 2.19 ± 0.47 | – | –
69 | SLGKQKVFIIRKSLLDELMEVQHF [SOAT2] | 2.58 ± 0.52 | 2.56 ± 0.73 | – | –

Row | Sequence | protein stability index [1] | protein stability index [2] | protein stability index [3] | protein stability index [4]
70 | AATRGGSHLQAAAQTPPRPGPPSA [SCNN1D] | 4.93 ± 0.21 | 4.84 ± 0.1 | – | –
71 | PESETSILLSWTPPRSDTIANYEL [PTPRD] | 3.09 ± 0.35 | 2.96 ± 0.39 | – | –
72 | LQNNCTSSITRQKKRLQELALALK [TMEM120A] | 2.79 ± 0.15 | 2.83 ± 0.4 | – | –
73 | LVSGSQSALGPPPAASNSSDLFDL [CLINT1] | 4.43 ± 0.24 | 4.34 ± 0.18 | – | –
74 | LSPSRGVAQCLRDLVAMQWADAAG [ZSWIM9] | 2.7 ± 0.17 | 2.77 ± 0.28 | – | –
75 | DKLALCHLELTRKLQDLIKDVLRY [FCHO1] | 2.9 ± 0.48 | 2.74 ± 0.43 | – | –
76 | DDGTYSQVQCHSYTGYCWCVTPNG [SMOC2] | 2.48 ± 0.14 | 2.66 ± 0.47 | – | –
77 | EGFLFVFGGQDENKQTLSSGEKYD [GAN] | 3.11 ± 0.28 | 3.73 ± 0.64 | – | –
78 | ENIAWVKSYNICFELEDSNEIFTQ [PDS5B] | 2.46 ± 0.61 | 2.53 ± 0.28 | – | –
79 | PLCNFNITESFTELARIVLLRHGM [RAB40B] | 2.8 ± 0.87 | 2.19 ± 0.97 | – | –
80 | GFWEEERPFWEEEKTFWKEEKSFW [CCDC70] | 2.85 ± 0.35 | 3.274 ± 0.027 | – | –
81 | RTGLEKAAAGAVGLERRDWSPSPP [SPDEF] | 4.55 ± 0.2 | 4.49 ± 0.25 | – | –
82 | DPLANGCQGVSEAAHRLARRLYHL [PSD2] | 3.24 ± 0.18 | 3.52 ± 0.059 | – | –
83 | SRLLGSASPSSSVRLGSFRSPRAG [PRPH] | 4.08 ± 0.19 | 3.96 ± 0.18 | – | –
84 | LRKREKAEEKERRRKEYDALKAAK [LRRC59] | 4.66 ± 0.4 | 4.79 ± 0.31 | – | –
85 | PPKRMLGADREFIEARRRALKRFV [SNX8] | 3.36 ± 0.43 | 3.62 ± 0.17 | – | –
86 | ELEKSGHGQAGQRQDPRPHGPQLP [ZBED2] | 5.01 ± 0.25 | 5.28 ± 0.055 | – | –
87 | EAQAFRALVQEKIQKRNQRQSGDR [WAS] | 4.5 ± 0.12 | 4.5 ± 0.13 | – | –
88 | VVGGAMFFIGFTALVIMWQKHYVY [COX4I1] | 3.11 ± 0.29 | 3.24 ± 0.49 | – | –
89 | QPAFTGIKGKEGSALTEGAKEEGG [EPB41L3] | 5.5 ± 0.071 | 5.65 ± 0.23 | – | –

Reference: the supplement of paper PMC10567573
